Source: doi:10.1101/2023.12.24.573241

What was measured:
[1] = target: Taxol-stabilized microtubules polymerized from pig brain tubulin, labeled with biotin and AZDye647 (pig) (UniProt P02550); experiment: TIRF single-molecule motility assay
[2] = target: DmUNC-104^bris (full-length DmUNC-104 R562H, C-terminal sfGFP and 2xStrep-tag II) (Drosophila melanogaster) (UniProt A1ZAJ2); experiment: mass photometry

UniProt P02550, sequence (P02550 whole entry): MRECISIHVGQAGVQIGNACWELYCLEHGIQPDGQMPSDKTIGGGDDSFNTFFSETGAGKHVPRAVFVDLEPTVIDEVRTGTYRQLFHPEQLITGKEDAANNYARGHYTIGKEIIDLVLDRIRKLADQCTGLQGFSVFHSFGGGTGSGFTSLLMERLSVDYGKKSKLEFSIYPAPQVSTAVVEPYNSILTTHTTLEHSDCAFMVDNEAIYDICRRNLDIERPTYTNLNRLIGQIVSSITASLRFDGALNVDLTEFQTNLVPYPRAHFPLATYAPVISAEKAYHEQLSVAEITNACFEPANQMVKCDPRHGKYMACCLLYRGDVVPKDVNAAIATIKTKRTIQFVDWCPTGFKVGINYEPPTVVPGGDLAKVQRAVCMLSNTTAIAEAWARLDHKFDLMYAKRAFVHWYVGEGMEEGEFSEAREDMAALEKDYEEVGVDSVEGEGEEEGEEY

landing rate (median) (molecules/µm/s) [1]: 0.034 | landing rate of motile motors (median) (molecules/µm/s) [1]: 0.015 | percent of particles as dimer [2]: 71% | stoichiometry N [2]: 2
Substance: DmUNC-104^bris (full-length DmUNC-104 R562H, C-terminal sfGFP and 2xStrep-tag II) (from UniProt A1ZAJ2 1-1670) (natural protein)
